Results on 7 molecules are retold here after patent US20120269834A1, “IMMUNOGLOBULIN CLEAVAGE FRAGMENT VACCINE COMPOSITIONS” (priority 2010, published 2012).

One assay concerns the target human IgG1 (Homo sapiens, UniProt P01857). Nature of the assay: action of human and bacterial proteases on human IgG1 (Table 1). It counts as biochemical. Conditions: for Major Product: None = no detectable cleavage in 24 hours; for Cleaved Site: human IgG1 heavy chain, EU numbering. As for the experimental part:
Table 1 is a summary of the findings concerning the action of human proteases and two bacterial proteases on human IgG1. The term “Coagulation proteinases” refers to serum coagulation cascade proteins including; FXIIa, FIXa, FXa, thrombin and activated protein C; plasmin was plasminogen co-incubated with plasminogen activators; tPA, streptokinase and staphylokinase; “plasminogen activators alone” are without plasminogen; and the MMPs were recombinant proteinases obtained either as the active form or the pro-enzyme as detailed in the Materials; and “None” denotes no detectable cleavage in 24 hours. Except where indicated all enzymes where human. The residue designations are for the EU numbering system for the IgG1 antibody heavy chain where the 25 residues of SEQ ID NO: 1 corresponds to residues 219 through 243 of the complete mature heavy chain.

Assay [1] relates to platelets. As to the kind of experiment: circulating platelet counts in dogs. The assay is classed as in vivo, dog. The conditions noted are these: for platelet clearance: dose finding. How it is done:
First, the c7E3 antibody antigen binding and platelet depletion parameters were established in dogs.
c7E3 IgG and c7E3 IgG single-cleaved by IdeS protease were also compared in vivo. Three groups of 5 animals received either saline control, intact c7E3 IgG (0.05 mg/kg) or c7E3 single-cleaved IgG (0.05 mg/kg). Platelet counts were monitored at baseline and at 2, 24, 48, 72 and 96 hours post-administration. Limiting the study to 5 days minimized the likelihood of anti-c7E3 immune responses that might confound the interpretation of the results. The results are presented in FIG. 3 as the mean platelet count±SD for each animal group at each time point. The extent of the error bars connotes the normal variability of platelet counts in different animals (for example, the predose counts for the 5 animals in the single-cleaved IgG treatment group were 175,000, 355,000, 305,000, 276,000 and 334,000 per μL, respectively).
To be consistent with the prior experiments, the variants of c7E3 were all administered at the 0.05 mg/kg dose. The unique aspect of the experiment (groups 6 and 7) involves the infusion of the first targeting mAb followed by the cleavage site specific mAb after a 10 minute delay. The cleavage site specific IdeS cleavage site mAb, 2095-2, was administered at 0.5 mg/kg; 10-fold higher than the dose used for all of the c7E3 variants. The higher dose was chosen in order to maximize the complexation of cleavage site specific mAb with platelet-bound c7E3 variants. All mAbs were delivered by slow infusion over a 20 minute period. Platelet counts were monitored over a 96-hour period. The platelet counts were normalized to the pre-dose count within each animal for clarity of presentation and to minimize the normal variability in numerical platelet counts in these small 3-animal groups.

In assay [2] the test system is platelets. As to the kind of experiment: circulating platelet counts in dogs. It counts as in vivo, dog. Conditions: dose finding.
The mark [3] stands for this setting: FIG. 12 study, groups of 3 animals, c7E3 variants 0.05 mg/kg, 2095-2 0.5 mg/kg.

Bounds are passed on as bounds.

human IgG1, sequence (P01857 1-330 isoform P01857-1, other chains not shown): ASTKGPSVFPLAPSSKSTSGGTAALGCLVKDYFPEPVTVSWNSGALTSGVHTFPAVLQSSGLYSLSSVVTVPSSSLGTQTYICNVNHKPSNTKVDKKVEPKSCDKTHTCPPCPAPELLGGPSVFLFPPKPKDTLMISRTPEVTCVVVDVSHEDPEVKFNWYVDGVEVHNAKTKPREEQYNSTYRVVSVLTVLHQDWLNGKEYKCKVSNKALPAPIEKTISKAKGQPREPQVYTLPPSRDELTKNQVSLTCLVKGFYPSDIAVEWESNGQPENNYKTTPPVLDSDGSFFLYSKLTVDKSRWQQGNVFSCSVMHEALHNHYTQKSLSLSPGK

B1: Plasmin: plasminogen co-incubated with plasminogen activators (protein, UniProt P00747 20-580; P00747 581-810, looked up)
Plasmin heavy chain A: EPLDDYVNTQGASLFSVTKKQLGAGSIEECAAKCEEDEEFTCRAFQYHSKEQQCVIMAENRKSSIIIRMRDVVLFEKKVYLSECKTGNGKNYRGTMSKTKNGITCQKWSSTSPHRPRFSPATHPSEGLEENYCRNPDNDPQGPWCYTTDPEKRYDYCDILECEEECMHCSGENYDGKISKTMSGLECQAWDSQSPHAHGYIPSKFPNKNLKKNYCRNPDRELRPWCFTTDPNKRWELCDIPRCTTPPPSSGPTYQCLKGTGENYRGNVAVTVSGHTCQHWSAQTPHTHNRTPENFPCKNLDENYCRNPDGKRAPWCHTTNSQVRWEYCKIPSCDSSPVSTEQLAPTAPPELTPVVQDCYHGDGQSYRGTSSTTTTGKKCQSWSSMTPHRHQKTPENYPNAGLTMNYCRNPDADKGPWCFTTDPSVRWEYCNLKKCSGTEASVVAPPPVVLLPDVETPSEEDCMFGNGKGYRGKRATTVTGTPCQDWAAQEPHRHSIFTPETNPRAGLEKNYCRNPDGDVGGPWCYTTNPRKLYDYCDVPQCAAPSFDCGKPQVEPKKCPGR
Plasmin light chain B: VVGGCVAHPHSWPWQVSLRTRFGMHFCGGTLISPEWVLTAAHCLEKSPRPSSYKVILGAHQEVNLEPHVQEIEVSRLFLEPTRKDIALLKLSSPAVITDKVIPACLPSPNYVVADRTECFITGWGETQGTFGAGLLKEAQLPVIENKVCNRYEFLNGRVQSTELCAGHLAGGTDSCQGDSGGPLVCFEKDKYILQGVTSWGLGCARPNKPGVYVRVSRFVTWIEGVMRNN
modifications: plasmin
For the molecule B1, in the assay with human IgG1, the “Major Product” value is “Fab + Fc” and the “Cleaved Site” value is “Lys^223-”.

B2: Chymase: human protease (protein, UniProt P23946 22-247, looked up)
Chymase: IIGGTECKPHSRPYMAYLEIVTSNGPSKFCGGFLIRRNFVLTAAHCAGRSITVTLGAHNITEEEDTWQKLEVIKQFRHPKYNTSTLHHDIMLLKLKEKASLTLAVGTLPFPSQFNFVPPGRMCRVAGWGRTGVLKPGSDTLQEVKLRLMDPQACSHFRDFDHNLQLCVGNPRKTKSAFKGDSGGPLLCAGVAQGIVSYGRSDAKPPAVFTRISHYRPWINQILQAN
As for B2, the “Major Product” value in the assay with human IgG1 is reported as “None”.

B3: Proteinase 3: human protease (protein, UniProt P24158 28-248, looked up)
Myeloblastin: IVGGHEAQPHSRPYMASLQMRGNPGSHFCGGTLIHPSFVLTAAHCLRDIPQRLVNVVLGAHNVRTQEPTQQHFSVAQVFLNNYDAENKLNDVLLIQLSSPANLSASVATVQLPQQDQPVPHGTQCLAMGWGRVGAHDPPAQVLQELNVTVVTFFCRPHNICTFVPRRKAGICFGDSGGPLICDGIIQGIDSFVIWGCATRLFPDFFTRVALYVDWIRSTLR
Regarding B3, in the assay with human IgG1, the “Major Product” value is “None”.

B4: c7E3 IgG: anti-platelet integrin (αIIbβIIIa) murine-human IgG1 chimeric antibody (antibody, chains of the INN, looked up, V domains shown)
VH: EVQLQQSGTVLARPGASVKMSCEASGYTFTNYWMHWVKQRPGQGLEWIGAIYPGNSDTSYIQKFKGKAKLTAVTSTTSVYMELSSLTNEDSAVYYCTLYDGYYVFAYWGQGTLVTVSA
VL: EIVLTQSPVTLSVTPGDSVSLSCRASRDISNNLHWFQQTSHESPRLLIKYASQSMSGIPSRFSGSGSGTDFTLSINSVETEDFGMYFCQQTNSWPYTFGGGTKLEIK
modifications: IgG1
notes: anti-platelet integrin (αIIbβIIIa) murine-human IgG1 chimeric antibody
For B4, in the assay on platelets [1] (0.05 mg/kg, by 96 hours), the platelet count recovery result is “approximately 50 % of the pre-dose level”. The “time of platelet nadir” value in the assay on platelets [1] (0.05 mg/kg, groups of 5 animals) is 24 h; in the assay on platelets [1] (FIG. 12 study, 0.05 mg/kg), 24 to 48 h. The “effect on platelet numbers” value in the assay on platelets [1] (0.05 mg/kg, groups of 5 animals, monitored to 96 hours) is “substantial decrease”; with platelets [1] (setting [3]) it was “substantial platelet clearance”. The “start of recovery of platelet numbers” value in the assay on platelets [1] (FIG. 12 study, 0.05 mg/kg) is listed as “approximately 72 hours”. Moreover, the “platelet clearance in pilot study” value with platelets [1] (after 24 hours, recovery over 5 days) is recorded as “profound platelet clearance”. The αIIβ3 receptor blockade result in the assay on platelets [1] (calculated for the 0.05 mg/kg dose) is given as “about 5%”. The platelet clearance result is on record as “little effect” in the assay on platelets [1] (0.05 mg/kg, 2 hours); more than 90% in the assay on platelets [1] (0.05 mg/kg, 24 hours); “ineffective” in the assay with platelets [2] (0.01 mg/kg, 2 and 24 hours); “profound platelet clearance” with platelets [2] (0.2 mg/kg, at 2 hours, maintained at 24 hours). For the same molecule, in the assay with platelets [1] (doses >0.05 mg/kg), the “time to platelet clearance” value was not above 24 h.

B5: c7E3 F(ab′)2: F(ab′)2 of c7E3 prepared using the bacterial enzyme IdeS (antibody, chains of the INN, looked up, V domains shown)
VH: EVQLQQSGTVLARPGASVKMSCEASGYTFTNYWMHWVKQRPGQGLEWIGAIYPGNSDTSYIQKFKGKAKLTAVTSTTSVYMELSSLTNEDSAVYYCTLYDGYYVFAYWGQGTLVTVSA
VL: EIVLTQSPVTLSVTPGDSVSLSCRASRDISNNLHWFQQTSHESPRLLIKYASQSMSGIPSRFSGSGSGTDFTLSINSVETEDFGMYFCQQTNSWPYTFGGGTKLEIK
modifications: F(ab')2 IdeS-generated
notes: F(ab′)2 of c7E3 prepared using the bacterial enzyme IdeS
For the molecule B5, the “effect on platelet numbers” value with platelets [1] (setting [3]) is “without effect”.

B6: Cathepsin S: human cysteine endopeptidase (protein, UniProt P25774 115-331, looked up)
Cathepsin S: LPDSVDWREKGCVTEVKYQGSCGACWAFSAVGALEAQLKLKTGKLVSLSAQNLVDCSTEKYGNKGCNGGFMTTAFQYIIDNKGIDSDASYPYKAMDQKCQYDSKYRAATCSKYTELPYGREDVLKEAVANKGPVSVGVDARHPSFFLYRSGVYYEPSCTQNVNHGVLVVGYGDLNGKEYWLVKNSWGHNFGEEGYIRMARNKGNHCGIASFPSYPEI
B6: the “Major Product” value with human IgG1 was “None”.

B7: Macrophage metalloelastase (MMP-12): recombinant human MMP (protein, UniProt P39900 106-470, looked up)
Macrophage metalloelastase: GPVWRKHYITYRINNYTPDMNREDVDYAIRKAFQVWSNVTPLKFSKINTGMADILVVFARGAHGDFHAFDGKGGILAHAFGPGSGIGGDAHFDEDEFWTTHSGGTNLFLTAVHEIGHSLGLGHSSDPKAVMFPTYKYVDINTFRLSADDIRGIQSLYGDPKENQRLPNPDNSEPALCDPNLSFDAVTTVGNKIFFFKDRFFWLKVSERPKTSVNLISSLWPTLPSGIEAAYEIEARNQVFLFKDDKYWLISNLRPEPNYPKSIHSFGFPNFVKKIDAAVFNPRFYRTYFFVDNQYWRYDERRQMMDPGYPKLITKNFQGIGPKIDAVFYSKNKYYYFFQGSNQFEYDFLLQRITKTLKSNSWFGC
Consider B7, for which, in the assay with human IgG1, the “Major Product” value is reported as “F(ab′)2 +” and the “Cleaved Site” value was “Pro^232-”.
